These results are taken from publication PMC5922973, “Topoisomerase VI senses and exploits both DNA crossings and bends to facilitate strand passage” (eLife, 2018).

Data set [1] deals with the molecule itself. Put plainly: FRET or BRET; bulk FRET between Alexa555 and Alexa647 on Cys155 of the two Top6B in the holoenzyme; 200 nM topo VI with 100 uM bp sheared salmon-sperm (short linear) DNA, before and over time after 1 mM AMPPNP; 50 mM potassium glutamate, 20 mM HEPES-KOH pH 7.5, 10 mM MgCl2.
Data set [2] concerns the molecule itself. Put plainly: FRET or BRET; bulk FRET between Alexa555 and Alexa647 on Cys180 of the ATP gate; 200 nM topo II, 0 or 100 uM bp supercoiled DNA, 100 mM KCl, 10 mM Tris-HCl pH 7.9, 5 mM MgCl2, 0 or 1 mM AMPPNP. For orientation: BRET reads energy transfer from a luciferase to a nearby fluorophore.

B1: M. mazei Top6B cyslite-155C, Alexa555/Alexa647-labeled, in the topo VI holoenzyme (enzyme, Methanosarcina mazei)
chain: METPIAEELAKKQKSISVAEFFEKNRQILGFDSAPRSLITTVKEAVDNALDACEEAGILPDILVQVERTGPDYVTVIIEDNGPGIVREQIPKVFAKLLYGSRFHALKQSRGQQGIGISAAVLYAQMTAGRHTKILSKTSPTAPAHYYELMINTSCNEPDILVDEVRDWFRPHGTQIELEMRAAYVKGRRQSIYEYLKATAIVNPHARITLIDPDGNEEVFERATDKMPEPAEEILPHPEGIELGTLMKMLHYTERQKLAPFLRYSFSKIGLLTAEEIAKAAGLDPEIDPHALGRHEARKLIEAFEKVKIMAPPTDALSPIGEDLIYRGLEKETTVDFIATSTRKPAVYSGNPFVVEVGMAYGGNLPKEEKISIMRFANRVPLLYQQGGCVTTHAVEDIKWKQYGLNQPGGGIPVGPVILLIHVASINVPFTSESKDAIADIPVIKEEIDLAIKEVARKLKHYLSKQSNLKKRREKEIIITKVLPKLAAKVAHVLEKDVPDINPVVAKIMGNLLVHRVIKNNGDGTVDVAIKVKNFGTSAYSFRVHEMLPAKVSGAKPEPKVVTMGNDYDYVWDISASAGSSKVLSYKIESASEEELQKLPQLIVEGIEEELVTGAKAFKGV
modifications: Alexa Fluor 555 C2 maleimide or Alexa Fluor 647 C2 maleimide on Cys155
notes: Top6B of Methanosarcina mazei topo VI, 'cys-lite' with Thr155 changed to cysteine; Stood in the assay as part of the A2B2 holoenzyme with Top6A; population is a mix of donor-acceptor (50%), acceptor-acceptor (25%) and donor-donor (25%) labeled enzymes; also called topo VI^cyslite-155C; TopoVI^cyslite-155C; not shown: His6, N-terminal, cleaved
As for B1, the binding result in data set [1] is “binds”.

B2: S. cerevisiae topoisomerase II 1-1177 cyslite-180C, Alexa555/Alexa647-labeled (enzyme, Saccharomyces cerevisiae, UniProt P06786 1-1177, looked up)
chain: MSTEPVSASDKYQKISQLEHILKRPDTYIGSVETQEQLQWIYDEETDAMIEKNVTIVPGLFKIFDEILVNAADNKVRDPSMKRIDVNIHAEEHTIEVKNDGKGIPIEIHNKENIYIPEMIFGHLLTSSNYDDDEKKVTGGRNGYGAKLCNIFSTEFILETADLNVGQKYVQKWENNMSICHPPKITSYKKGPSYTKVTFKPDLTRFGMKELDNDILGVMRRRVYDINGSVRDINVYLNGKSLKIRNFKNYVELYLKSLEKKRQLDNGEDGAAKSDIPTILYERINNRWEVAFAVSDISFQQISFVNSIATTMGGTHVNYITDQIVKKISEILKKKKKKSVKSFQIKNNMFIFINCLIENPAFTSQTKEQLTTRVKDFGSRAEIPLEYINKIMKTDLATRMFEIADANEENALKKSDGTRKSRITNYPKLEDANKAGTKEGYKCTLVLTEGDSALSLAVAGLAVVGRDYYGAYPLRGKMLNVREASADQILKNAEIQAIKKIMGLQHRKKYEDTKSLRYGHLMIMTDQDHDGSHIKGLIINFLESSFPGLLDIQGFLLEFITPIIKVSITKPTKNTIAFYNMPDYEKWREEESHKFTWKQKYYKGLGTSLAQEVREYFSNLDRHLKIFHSLQGNDKDYIDLAFSKKKADDRKEWLRQYEPGTVLDPTLKEIPISDFINKELILFSLADNIRSIPNVLDGFKPGQRKVLYGCFKKNLKSELKVAQLAPYVSEATAYHHGEQSLAQTIIGLAQNFVGSNNIYLLLPNGAFGTRATGGKDAAAARYIYTELNKLTRKIFHPADDPLYKYIQEDEKTVEPEWYLPILPMILVNGAEGIGTGWSTYIPPFNPLEIIKNIRHLMNDEELEQMHPWFRGWTGTIEEIEPLRYRMYGRIEQIGDNVLEITELPARTWTSTIKEYLLLGLSGNDKIKPWIKDMEEQHDDNIKFIITLSPEEMAKTRKIGFYERFKLISPISLMNMVAFDPHGKIKKYNSVNEILSEFYYVRLEYYQKRKDHMSERLQWEVEKYSFQVKFIKMIIEKELTVTNKPRNAIIQELENLGFPRFNKEGKPYYGSPNDEIAEQINDVKGATSDEEDEESSHEDTENVINGPEELYGTYEYLLGMRIWSLTKERYQKLLKQKQEKETELENLLKLSAKDIWNTDLKAFEVGYQEFLQRDAEAR
modifications: Alexa Fluor 555 C2 maleimide or Alexa Fluor 647 C2 maleimide on the native cysteine 180
notes: Saccharomyces cerevisiae topoisomerase II, C-terminal truncation coding for residues 1-1177 (Schmidt et al., 2012), with four cysteines changed to alanine; also called ScTop2^ΔCTR-cyslite-180C; topo II; not shown: His6, N-terminal, cleaved
As to B2, in data set [2], the binding result is on record as “binds”.
